From patent US20190144544A1 (Eli Lilly, published 2019)

Tests used:
[1] = target: cell surface PD-L1 (human, UniProt Q9NZQ7 19-290); assay: cell-based or functional assay
[2] = target: T1, human PD-L1 monomer (human, UniProt Q9NZQ7 19-238, limits assumed); assay: SPR (Biacore T200) at 20, 25, 37 and 42 °C, Fab as analyte over immobilised human PD-L1 monomer; van't Hoff analysis of the association phase
T1 construct: Amine-coupled to the sensor chip; also called hPD-L1 monomer; hPD-L1
T1 sequence (Q9NZQ7 19-238 limits assumed): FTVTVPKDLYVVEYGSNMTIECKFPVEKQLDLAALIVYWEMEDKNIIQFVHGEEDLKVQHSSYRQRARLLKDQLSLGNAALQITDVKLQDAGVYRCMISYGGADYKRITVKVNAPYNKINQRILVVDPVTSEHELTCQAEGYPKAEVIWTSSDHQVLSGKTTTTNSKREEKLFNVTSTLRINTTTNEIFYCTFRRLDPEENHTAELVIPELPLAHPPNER
Experimental: The sample gradients are prepared in the running buffer HBS-EP (0.01M HEPES pH 7.4, 0.15M NaCl, 3 mM EDTA, 0.005% v/v surfactant P20). The binding experiments are repeated at four different temperatures: 20° C., 25° C., 37° C. and 42° C. Throughout the kinetics experiments, the flow rate is maintained at 30 μl/min and the association/contact time at 180 sec for all three Fabs. […] After dissociation, a 0.75 M NaCl, 25 mM NaOH solution regenerates the immobilized hPD-L1, and then the surface is stabilized for 30 sec with the running buffer. […] The binding kinetics are analyzed using the Biacore T200 Evaluation software (Version 3.0). Data is referenced to a blank flow cell, and the data is fitted to the 1:1 Langmuir binding model.
Steady-state, association, and dissociation are the three binding phases analyzed. MATLAB is utilized for the linear regression analysis.

cell surface PD-L1, sequence (Q9NZQ7 19-290 limits assumed): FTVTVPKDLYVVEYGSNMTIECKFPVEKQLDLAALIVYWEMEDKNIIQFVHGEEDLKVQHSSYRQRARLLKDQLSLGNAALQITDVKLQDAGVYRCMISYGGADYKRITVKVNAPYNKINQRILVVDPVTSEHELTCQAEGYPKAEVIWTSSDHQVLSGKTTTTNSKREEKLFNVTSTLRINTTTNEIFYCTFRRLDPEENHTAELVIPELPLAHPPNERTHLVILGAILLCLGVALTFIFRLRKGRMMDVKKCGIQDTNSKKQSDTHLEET

Row | Binder | IFN-γ secretion fold change vs. IgG control, mixed lymphocyte reaction, 0.01 nM antibody [1] [fold] | IFN-γ secretion fold change vs. IgG control, mixed lymphocyte reaction, 0.05 nM antibody [1] [fold] | IFN-γ secretion fold change vs. IgG control, mixed lymphocyte reaction, 0.27 nM antibody [1] [fold] | IFN-γ secretion fold change vs. IgG control, mixed lymphocyte reaction, 1.3 nM antibody [1] [fold] | IFN-γ secretion fold change vs. IgG control, mixed lymphocyte reaction, 6.7 nM antibody [1] [fold] | IFN-γ secretion fold change vs. IgG control, mixed lymphocyte reaction, 33.3 nM antibody [1] [fold] | ΔSon [2]
1 | Antibody A (antibody, human IgG1, lambda, V domains shown) VH: QVQLVQSGAEVKKPGSSVKVSCKASGGTFSSYAISWVRQAPGQGLEWMGGIIPIFGTANYAQKFQGRVTITADKSTSTAYMELSSLRSEDTAVYYCARSPDYSPYYYYGMDVWGQGTTVTVSS VL: QSVLTQPPSASGTPGQRVTISCSGSSSNIGSNTVNWYQQLPGTAPKLLIYGNSNRPSGVPDRFSGSKSGTSASLAISGLQSEDEADYYCQSYDSSLSGSVFGGGIKLTVLG | 1.25 | 1.95 | 2.68 | 4.13 | 4.11 | 5.71 | 
2 | Antibody A-Fab (Fab, V domains shown, CH1 and the lambda constant domain are not specified for the Fab; also called Fab of Antibody A) VH: QVQLVQSGAEVKKPGSSVKVSCKASGGTFSSYAISWVRQAPGQGLEWMGGIIPIFGTANYAQKFQGRVTITADKSTSTAYMELSSLRSEDTAVYYCARSPDYSPYYYYGMDVWGQGTTVTVSS VL: QSVLTQPPSASGTPGQRVTISCSGSSSNIGSNTVNWYQQLPGTAPKLLIYGNSNRPSGVPDRFSGSKSGTSASLAISGLQSEDEADYYCQSYDSSLSGSVFGGGIKLTVLG |  |  |  |  |  |  | -26
